From patent US10633429B2, “Human antibody κ type light chain complex-containing composition and method for producing same” (JAPAN SCIENCE AND TECHNOLOGY AGENCY, priority 2013, dated 2020) come the findings set out here.

In assay [1] the test system is A549 cell line (human alveolar epithelial cancer cell line). In words: Cytotoxicity assay (WST assay), A549 cell line. It counts as cell-based. Conditions: Example 6, 24 h, light chain not bound with copper ions set to 100%. The procedure: (§1) The cytotoxicity of each complex-containing composition to cancer cells was tested using cancer cell lines. As the cancer cell lines, A549 cell line (human alveolar epithelial cancer cell line), ES-2 cell line (human ovarian cancer cell line), MOLT-4 cell line (human acute lymphoblastic leukemia T cell line), BxPC-3 cell line (human pancreatic adenocarcinoma cell line), SNU-1 cell line (human metastatic gastric cancer cell line), and PANC-1 cell line (human pancreatic cancer cell line) were used.
(§2) All of these cell lines were purchased from ATCC (American Type Culture Collection). Here, the A549 cell line was cultured using a 10% FCS (fetal calf serum)-containing F-12K culture medium by a general method, the ES-2 cell line was cultured using a 10% FCS-containing McCoy's 5A culture medium by a general method, each of the MOLT-4 cell line, SNU-1 cell line, and BxPC-3 cell line was cultured using a 10% FCS-containing RPMI-1640 culture medium by a general method, the PANC-1 cell line was cultured using a 10% FCS-containing DMEM culture medium by a general method, and the WI-38 cell line was cultured using a 10% FCS-containing EMEM culture medium by a general method.
(§3) First, after being recovered by thawing the frozen cancer cell lines, the recovered cancer cell lines were seeded in a 96-well plate by 100 μL to be 5×10^3 cells/well (the number of seeds was appropriately adjusted by cell species). After culturing was carried out at 37° C. for 24 hours, a culture medium to be added to the 96-well plate was removed by decantation, and then each complex-containing composition prepared at a concentration of about 1 mg/mL was added to each well by 100 μL. After culturing was carried out for 24 hours or 48 hours from the addition of the complex-containing composition (after cells are planted and cultivated for 48 hours or 72 hours), a WST-1 reagent (manufactured by Roche Inc.) was added to each well by 10 μL and incubated for 1, 1.5, and 2 hours to form a formazan dye, and then the absorbance (Abs at 450 nm) of the formazan dye was measured (WST assay). As a control, a human antibody κ type light chain not bound to metal ions or PBS was added instead of the complex-containing composition and cultured for 24 hours or 48 hours, and then WST assay was carried out. Based on the results of the obtained absorbance, the cell survival rate of the well added with the human antibody κ type light chain not bound to metal ions or the well added with the PBS was set to 100%, and the cell survival rate of each well was determined, so as to evaluate the cytotoxicity of the added complex-containing composition.

Assay [2] deals with ES-2 cell line (human ovarian cancer cell line). The assay can be described thus: Cytotoxicity assay (WST assay), ES-2 cell line. The following applies: Example 6, 24 h, light chain not bound with copper ions set to 100%. It is filed as cell-based. The procedure: as §1, §2, §3
For assay [3], the system named is MOLT-4 cell line (human acute lymphoblastic leukemia T cell line). The assay can be described thus: Cytotoxicity assay (WST assay), MOLT-4 cell line. It is filed as cell-based. Conditions: Example 6, 24 h, light chain not bound with copper ions set to 100%. How it is done: as §1, §2, §3
Meanwhile, in the case of the MOLT-4 cell line, from the time cells were seeded in the 96-well plate, each complex-containing composition prepared at a concentration of about 1 mg/mL was added to each well by 100 μL and cultured for 24 hours or 48 hours, and then WST assay was carried out.

Assay [4] relates to SNU-1 cell line (human metastatic gastric cancer cell line). In words: Cytotoxicity assay (WST assay), SNU-1 cell line. It counts as cell-based. The following applies: 24 h, light chain not bound with copper ions set to 100%. The procedure:
as §1
(§4) All of these cell lines were purchased from ATCC (American Type Culture Collection). […]
(§5) First, after being recovered by thawing the frozen cancer cell lines, the recovered cancer cell lines were seeded in a 96-well plate by 100 μL to be 5×10^3 cells/well (the number of seeds was appropriately adjusted by cell species). […] After culturing was carried out for 24 hours or 48 hours from the addition of the complex-containing composition (after cells are planted and cultivated for 48 hours or 72 hours), a WST-1 reagent (manufactured by Roche Inc.) was added to each well by 10 μL and incubated for 1, 1.5, and 2 hours to form a formazan dye, and then the absorbance (Abs at 450 nm) of the formazan dye was measured (WST assay). […]

The test system of assay [5] is B-16 cell line (mouse melanoma-derived cell) subcutaneous tumor. The assay can be described thus: Cytotoxicity assay in tumor-bearing mouse model, B-16 cell line transplanted. It counts as in vivo. The following applies: B-16-transplanted mouse; 32.3 μg per mouse injected into subcutaneous tumor, total of 10 times from 4th day; n=2. The procedure: [Cytotoxicity Assay in Tumor-Bearing Mouse Model]
The cytotoxicity of each complex-containing composition to cancer cells in a tumor-bearing mouse model was tested using tumor-bearing mouse models.
First, the ES-2 cell line (human ovarian cancer-derived cell) or the B-16 cell line (mouse melanoma-derived cell) was subcutaneously transplanted into a mouse to a concentration of 2.5×10^6 cells/mouse. The complex-containing composition was administered against tumors subcutaneously established in the mouse from the 4th day after cancer cell transplantation. The administration of the complex-containing composition was carried out by directly injecting the complex-containing composition into a plurality of sites in the subcutaneous tumor from the outside of the mouse body using a syringe. […]
The volume of the subcutaneous tumor over time was measured from the outside of the mouse body, the volume of the subcutaneous tumor at the 1st day after cancer cell transplantation (next day after transplantation) was set to 1, and the relative tumor volume was determined, so as to evaluate the cytotoxicity of the complex-containing composition to cancer cells in the tumor-bearing mouse model. […]

For assay [6], the system named is BxPC-3 cell line (human pancreatic adenocarcinoma cell line). In words: Cytotoxicity assay (WST assay), BxPC-3 cell line. It counts as cell-based. Conditions: Example 6; copper-bound light chain 40 μM; 24 h; light chain not bound with copper ions set to 100%. How it is done: as §1, §4, §5
Where [7] appears, read: copper-bound light chain 12.3 μM.

B1: #4: human antibody κ type light chain, SEQ ID NO. 12; tested bound with copper ions (protein)
light: DVVMTQTPLSLSVTPGEPASISCRSTQSLLDSDGVNPSFDWYVQKPGQSPQLLIHRGFYRASGVPDRFSGSGSGTDFTLRISRVEAEDVGVYYCMQRIEFPLTFGGGTKVELKRTVAAPSVFIFPPSDEQLKSGTASVVCLLNNFYPREAKVQWKVDNALQSGNSQESVTEQDSKDSTYSLSSTLTLSKADYEKHKLYACEVTHQGLSSPVTKSFNRGEC
modifications: bound copper ions; human; Human antibody kappa light chain (#4)
In the case of B1, the “Relative cell survival rate” value in assay [1] (copper-bound light chain 25.2 μM) stood at 81.8%; in assay [1] (copper-bound light chain 34.9 μM) it was 79.1%; in assay [2] (copper-bound light chain 20 μM), 50.3%; in assay [3] (copper-bound light chain 4 μM), 69.6%; in assay [3] (copper-bound light chain 20 μM), 42.3%; in assay [3] (copper-bound light chain 40.4 μM), 24.3%. Besides, in assay [4] (Example 7, Table 5, copper-bound light chain 39.4 μM), the “Relative cell survival rate” value came to 29.5%. Moreover, in assay [5], the “Relative tumor volume at 15 days after transplantation, compared to control group (PBS)” value is recorded as “about ⅓”.

B2: #11: human antibody κ type light chain, SEQ ID NO. 14; tested bound with copper ions (protein)
light: DIVMTQTPLSLSVTPGQPASISCKSSQSLLHSDGKTYLYWYLQKPGQSPQLLLYEVSSRFSGVPDRFSGSGSGTDFTLKISRVEAEDVGVYYCMQGIHLPYTFGQGTKLEIKRTVAAPSVFIFPPSDEQLKSGTASVVCLLNNFYPREAKVQWKVDNALQSGNSQESVTEQDSKDSTYSLSSTLTLSKADYEKHKLYACEVTHQGLSSPVTKSFNRGEC
modifications: bound copper ions; human; Human antibody kappa light chain (#11)
In the case of B2, the “Relative cell survival rate” value in assay [1] (setting [7]) worked out at 73.2%; in assay [1] (copper-bound light chain 20 μM), 54.5%; in assay [2] (setting [7]) it was 58.5%; in assay [2] (copper-bound light chain 20 μM) it was 23.8%.

B3: #7VL: mutant of light chain #7, full-length SEQ ID NO. 4; tested bound with copper ions (protein)
light: EIVMTQSPLSLPVTPGEPASISCRSSQSLLHSNTRNYLDWYLQKPGQSPQLLIYLGSNRASGVPDRFSGSGSGTDFTLKISRVEAEDVGVYYCMQGLQTPRTFGQGTKVEIKRTVAAPSVFIFPPSDEQLKSGTASVVCLLNNFYPREAKVQWKVDNALQSGNSQESVTEQDSKDSTYSLSSTLTLSKADYEKHKLYACEVTHQGLSSPVTKSFNRGEC
modifications: bound copper ions; human; Human antibody kappa light chain (#7 VL)
As to B3, the entries for the “Relative cell survival rate” value in assay [1] (copper-bound light chain 40 μM), in assay [2] (copper-bound light chain 40 μM) and in assay [3] (copper-bound light chain 40 μM) were 45.9%, 35.7% and 29.4%, respectively.

B4: #7VL(I): mutant of light chain #7, full-length SEQ ID NO. 6; tested bound with copper ions (protein)
light: EIVMTQSPLSLPVTPGEPASISCRSSQSLLHSNTRNYLDWYLQKPGQSPQLLIYLGSNRASGVPDRFSGSGSGTDFTLKISRVEAEDVGVYYCMQGLQTPITFGQGTKVEIKRTVAAPSVFIFPPSDEQLKSGTASVVCLLNNFYPREAKVQWKVDNALQSGNSQESVTEQDSKDSTYSLSSTLTLSKADYEKHKLYACEVTHQGLSSPVTKSFNRGEC
modifications: bound copper ions; human; Human antibody kappa light chain (#7 VL(I))
On to B4, for which the “Relative cell survival rate” value in assay [1] (copper-bound light chain 40 μM) was 79.0%; in assay [2] (copper-bound light chain 40 μM), 53.7%; in assay [3] (copper-bound light chain 40 μM) it was 58.7%.

B5: #7RL I: mutant of light chain #7, full-length SEQ ID NO. 10; tested bound with copper ions (protein)
light: EIVMTQSPLSLPVTPGEPASISCRSSQSLLHSNTRNYLDWYLQKPGQSPQLLIYLGSNRASGVPDRFSGSGSGTDFTLKISRVEAEDVGVYYCMQGLQTPITFGQGTRLEIKRTVAAPSVFIFPPSDEQLKSGTASVVCLLNNFYPREAKVQWKVDNALQSGNSQESVTEQDSKDSTYSLSSTLTLSKADYEKHKLYACEVTHQGLSSPVTKSFNRGEC
modifications: bound copper ions; human; Human antibody kappa light chain (#7 RLI)
With B5, the “Relative cell survival rate” value in assay [1] (copper-bound light chain 40 μM) was 41.9%; in assay [6], 77.6%; in assay [4] (Example 6, copper-bound light chain 40 μM), 52.2%.

B6: #7VL(RL): mutant of light chain #7, full-length SEQ ID NO. 8; tested bound with copper ions (protein)
light: EIVMTQSPLSLPVTPGEPASISCRSSQSLLHSNTRNYLDWYLQKPGQSPQLLIYLGSNRASGVPDRFSGSGSGTDFTLKISRVEAEDVGVYYCMQGLQTPRTFGQGTRLEIKRTVAAPSVFIFPPSDEQLKSGTASVVCLLNNFYPREAKVQWKVDNALQSGNSQESVTEQDSKDSTYSLSSTLTLSKADYEKHKLYACEVTHQGLSSPVTKSFNRGEC
modifications: bound copper ions; human; Human antibody kappa light chain (#7 VL(RL))
On to B6, for which the results for the “Relative cell survival rate” value in assay [1] (copper-bound light chain 40 μM), in assay [2] (copper-bound light chain 40 μM) and in assay [3] (copper-bound light chain 40 μM) were 48.0%, 49.4% and 32.4%, respectively.
